Experimental data: the nanobody polyreactivity screen of Harvey et al. (2022)

Assay: yeast display, Sf9 membrane polyspecificity reagent, FACS + sequencing; frameworks hold sequencing errors
Procedure, shortened: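 Sorting gates, low and high (top ~1%), were placed on anti-HA fluorescence to track expression and on streptavidin fluorescence to track reagent binding. A clone's polyreactivity label is taken from the gate it came out of. The reagent was 10% biotinylated, detergent-solubilized Sf9 membrane, applied for 1 hour at 4 °C to galactose-induced yeast display cells.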

Sequence	polyreactivity (PSR sort gate)
QVQLVDSGGGLVQAGGSLRLSCASSGRIFHGYAMGWYRHAPGKERELVAAIDEDGGSTYYADSVKGRFTISRDNAKNTVYLQMNSLKPEDTAVYYCATDALYTYGYDYWGQGTQVTVSS	low polyreactivity
QVQLVESGGGLVQAGGSLRLSCAASGSNFWRKAMGWYRQAPGKERELVAAITCGGSTYYADSVKGRCTISRDNAKNTVYLQMNSLKTEVTAVYYCAAGYSYRYGYWGQGTQVTVSS	low polyreactivity
QVQHVESCGGLVQAGGSLRLSCAASGFTFASNVMGWYRQAPGKERDLVAAITSGASTNYADSVKGRFTISRDNAKNTFYLQMNSLKPEDTAVYYCAAGRQWYVFYEFDYWGQGTQVTVSS	high polyreactivity
QVQLVESGGGLVQAGGSLRLSCAASGRIFVQYAMGWYRQAPGKERELVAAISGSGGRTYYADSVKGRFTISRDNAKNTVYLQMNSLKPEDTAVYYCNTARLHGQTQGGDYWGQGTQVTVSS	high polyreactivity
QVQLVESGGGLVQAGGSLRLICAASGFTFPVYARGWYRQAPGKERELVAAISSSGGTTYYADSVKGRFTISRDNAKNTVYLQMISLKPEDTAVYYCNAYYGSTAYGYDYWGQGTQVTVSS	low polyreactivity
QVQLVESGGGLVQAGGSLRLSCAASGFIFSDNAMGWYRQAPGKERELVSAITDDGDTTYYADSVKGRFTISRDNAKNTVYLQMNSLKPEDTAVYYCATEIEDDESSGPYYYVGYGYWGQGTQVTVSS	high polyreactivity
QVQLVESGGGLVQAGGSLRLSCPASGSTIPVNAMVWYRQAPGKERELVAAIRSSTGRTYYADSVKGRFTTSRDNAKNTVYLQMNSLKPEDTAVYYCAADYRYNRGITSNKDYDYWGQGTQVTVSS	low polyreactivity
QVQLVESGGGLVQAGGSLRLSCAASGSIFQYVYAMGWYRQAPGKERELVATITWSGGTTYYADSVKGRFTISRDNAKNTVYLQMHSLKPEDTADYYCAAESIYYPVAQYYYSFEYWGQGTQVTVSS	low polyreactivity
QVQLVESGGGLVQAGGSLRLSCAASGSTFLYYTMGWYRQAPGKERELVAAITGSGTSTYYADSVKGRFTISRDNAKNTVYLQMNSLKPEDTAVYYCAARGHGRLYYWGHGTQVTVSS	high polyreactivity
QVQLVESGGGLVQAGGTLRLSCAASGRIFQYYDMGWYRQAPGKERELVAAITFSGGSTYYADSVKGRFTISRDNAKNTVYLQMNSLKPEDTAVYYCARGYWVYYPDGDYWGQGTQVTVSS	low polyreactivity
QVQLVESGGGLVQAGGSLRLSCAASGSIFDYYAMGWYRQAPGKERELVAAISSSGARTSYADSVKGRFTISRDNAKNTVYLQMNSLKPEDTAVYYCAAPYRSLKTGRYDYWGQGTQVTVSS	high polyreactivity
QVQLVESGGGLVQAGGSLRLICAASGYILWKAMGWYRQAPGKERELVAAIRFRVGSTSYADSVKGRFTISRDNAKNTVYLQMNSLKPVYTAVYYCTARWWVIRPYQRHDYWGQGTQVTVSS	low polyreactivity
QVQLVESGGGLVQAGGSLRLSCAAYYAMGWYRQAPGKERELVAAISSTGRTNYADSVKGRFTISRDYAKNTVYLQMNSLKPEDTAVYYCNAGDPSGMDYWGQGTQVTVSS	low polyreactivity
QVQLVESGGGLVQAGGSLRLSCAASGFTFPWNVMGWYRQAPGKERELVAAITYDGGGTYADSVKGRFTISRDNAKNTVYLQMNSLKPEDTEVYFCNADLIYGEVYDYWGQGTQVTVSS	low polyreactivity
QVQLVESGGGLVQAGGSLRLSCAASGSTFVGNAMGWYRQAPGKERELVAAITGGGGSTYYADSVKGRFTISRDNAKNTVYLQMNSLKPEDTAVYYCARDRTDYYVWYVRYYYWGQGTQVTVSS	low polyreactivity
QVQLVESGGGLVQAGGSLRLSCAASGSIFQVNAMGWYRQAPGKERELVASITTSGGSTYYADSVKGRFTISRDNAKNTVYLQMNSLKPEDTAVYYCAADHWSQDYDYWGQGTQVTVSS	low polyreactivity
QVQLVESGGGLVQAGGSLRLRCAASGRIFARNAMGWYRQAPGKERELVAAISSRGSSTYYADSVKGRFTISRDNAKNTVYLQMNSLKPEDTAVYYCNAYYSVYPPGYDYWGQGTQVTVSS	high polyreactivity
QVQLVESGGGLVQAGGSLRLSCAASGSTFIFNAMGWYRQAPGKEWELVAGISSGSTYYADSVKGRFTISRDNAKNTVYLQMNSLKPEDTAVYYCATKLRRWRFYAAYDYWGQGTQVTVSS	high polyreactivity
QVHLVESGGGLDQAGGSLRLRCAASGRIFRHYAMGWYRQAPGTERELVAAYRWSCGSTYYADSEKGRFTISRDNAKNTVYLQMNSLKPEDNAVYYCATRDAVGHRPSGPYQLYDYWGQGTQVTVSS	low polyreactivity
QVQLVESGGGLVQAGGSLRLSCAASGFIFRGYAMGWYRQAPGKERELVAAISRRGGSTYYADSVKGRFTISRDNAKNTVYLHMNSLKPEDTAVYYCNAETTPQGNVRDGYWGQGTQVTVSS	high polyreactivity
QVQLVESGGGLVQAGGSLRLSCAASGSTFTWYGKGWYRQAPGKERELVAAISGSGGRTYYADSVKGRFTISRDNAKNTVYLQMNSLKPEDTAVYYCNADPANPFGTEFEYWGQGTQVTVSS	high polyreactivity

Sequence	polyreactivity (PSR sort gate)
QVQLVESGGGLVQAGGTLRLSCAASGRIFVINTMGWYRQAPGKERELVAAISRGGSTNYADSLKGRFTISRDNAKNTVYLQMNSLKPEDTAVYYCAATGYILFAGGGYDYWGQGTQVTVSS	low polyreactivity
QVQLVDSGGGLVQAGGSLRLSCAASGSIFVGNAMGWYRQAPGKERELVAAITSSGGRTYYADSVKGRFTISRDNAKYTVYLQMNSLKAEDTSVYYCNTSRTRRFSLWDYDYWGQGTQVSVSS	high polyreactivity
QVQLVESGGGLVQAGGILRLSCAASGLTFNYYDMGWYRQAPGKERELVAAISRSGTNTSYADSVKGRFTISRDNAKNTVYLQMNSLKPEDTAVYYCNSAGVYLAAGPYTANFNYNYWGQGTQVTVSS	low polyreactivity
QVQLVASGGGLVQAGGSLRISSAASGGIFPQYAMGWYRQAPGKERELVAAISRRGGSTYYADSVKGRFTISRDNAKNTVYLQMNSLKPEDTAVYFCNAGGSDYGVSNKYNSWGQGTQVTVSS	high polyreactivity
QVQLVESGGGIVQAGGSLRLSCAASGIIFSANAMGWYRQAPGKERELVAAISRAGSTNYADYVKGRFTISRDNAKNTVYLQMNSLKPEDTAVYYCAAGGGFYFIWTMDYWGQGTQVTVSS	low polyreactivity
QVQLVESGGGLVQAGGSLRLSCAASGMGWYRQAPGKERELVAAITSGDSTNYADSVKGRFTISRDNAKNTVYLQMNSLKPEDTAVYYCAADPDYLYAYYYWGQGTQVTVSS	low polyreactivity
QVQLVESGGGLVQAGGSLRFSCDASGRTFRYYAMGWYRQAPGKERELVAAIRSGGTTYYADSVKGRFTISRDNAKNTVYFQMNSLKPEDTAVYYCAAKVPWKYSRVYRVGFDYWGQGTQVTVSS	high polyreactivity
QVQLVESGGGLVQAGGSLRLSCAASGSTFRGYVMGWYRQAPGKERELVAVISYNGGSTYYADSVKGRFTISRDNAKNTVYLQMNSLKPEDTAVYYCAATYFFLYTSWDEYWGQGTQVTVSS	low polyreactivity
QVQLVESGGGLVQAGGSLRLNSAASGIIFPRYAMGWYSQAPGKEWEVVAGFTSSGGTYYADSVKGRFTISRDHAKNTVYLQMNSLIPEDTAVYYCAARQGNLRRGVRWFNYWGQGTQVTVSS	high polyreactivity
QVQLVESGGGLVQAGGSLRLSCAASGFTFPTYAMGWYRQAPGKERELVAAISTSGARTYYADSVKGRFTISRDNAKNTVYLQMNSLKPEDTAVYYCAAVFKAGSAYDYWGQGTQVTVSS	high polyreactivity
QVQLVESGGGLVQAGGSLRLSCAASGRIFAHYAMGWYRQAPGKERELVADIRQSGGRTYYADSVKGRFTISRDNAKNTVYLKMNSLKPEDTAVYFCATDYGSWGDYSGKYDYWGQGTQVTVSS	low polyreactivity
QVQLVESGGGLVQAGGSLRLSCAASGRIFEDNGMGWYRQAPGKEREFVATISWDGDRTYYADSVKGRFTISRDNAKNTVYFQMNSLKPEDTAVYYCNADLPLWPFRGYEYWGQGTQVTVSS	low polyreactivity
QVQLVESGGGLVQAGGSLRLSCDASGSIFPYYAMGWYRQAPGKERELVAAITSSDGITYYADSVKGRFTISRDNAKNTVYLQMNSLKPEDTAVYYCAAEVYVADWLTEFYYWGQGTQVTVSS	high polyreactivity
QVQLVESGGGLVQAGGSLRLSCAASGSIFPVYAMGWYRQAPGKERELVATIRSGGARTYYADSVKGRFTISRDNAKNTVYLQMNSLKPEDTAVYYCAVDQSRWQARYYYWGQGTQVTVSS	high polyreactivity
QVQLVESGGGLVQAGGSLRLSCAASGSTFSYYAMGWYRQAPGKERELVAAITSSGGSTYYADSVKGRFTISRDNAKNTVYLQMNSLKPEDTAVYYCNTAYHVPYDYWGQGTQVTVSS	low polyreactivity
QVQLVESGGGLVQAGGSLRLSCAASGRIFFVNAMGWYRQAPGKERELVAAISRGGSTNYADSVKGRFTISRDNAKNTVYLQMNSLKPEDTAVFYCNADGSSYWYPVPLDGGDYWGQGTQVTVSS	low polyreactivity
QVHLVESGGGLVQAGGSLRLSCAASGSILLINAMGWYRQAPGKERELVAAIRTGGSTYYADSVKGRFTISRDNAKNTVSLQMNSLKPEDTAVYYCAVRTGRRWWKFDYWGQGTQVTVSS	low polyreactivity
QVQLVESGGGLVQAGGSLRLSCAASRRIFGQNVMGWYRQAPGKERELVAAITSAGRTYYADSVKGRFTISRDNAKNTVYLQMNSLKPEDTAVYYCAAYVRRGFDWGHGTQVTVSS	high polyreactivity
QVQLVESGGGLVQAGGSLRLSCAASGSTFTLYVMGWYRQATGKERELVAAISSNGGRTYYADSVKGRFTISRDNAKNTVYLQMTSLKPEDTAVYYCAKLVSLAGRIYGYWGQGTQVTVSS	high polyreactivity
QVQLVESGGGLVQAGGSLRLSCAASGRIFRYYAMGWYRQATGKERELVAAISRSGGSTYYADSVKGRFTISRDNAKNTVYLQMNSLKPEDTAVYYCNAQWRSTDPYPPGYDYWGQGTQVTVSS	high polyreactivity
